{"source": "paper PMC8169611", "target": "mouse proIGF2 (insulin-like growth factor 2 pro-hormone) (mouse)", "experiment": "fluorescence polarisation"}
{"substance": "mouse proIGF2 (insulin-like growth factor 2 pro-hormone) (natural protein)", "values": [{"measurement": "Kd", "result": 2.98, "unit": "µM"}]}
